# In publication PMC8336959:
# Target: Atto488-labeled GRB2-SH2 domain (UniProt P62993)
# Experiment: MST
# Sequence of Atto488-labeled GRB2-SH2 domain (P62993 60-152): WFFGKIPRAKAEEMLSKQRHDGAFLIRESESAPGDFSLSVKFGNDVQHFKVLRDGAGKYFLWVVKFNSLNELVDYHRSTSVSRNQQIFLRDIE
substance,measurement,value
Dual-phosphorylated H2AX (pH2AX) peptide,Kd,2800 nM
